According to patent US20250312479A1:

Molecular target: CD2 (human) (UniProt P06729)
Experiment: dTomato EVs from cells stably expressing the codon-optimized scFv on Jurkat T cells, flow cytometry

Chain of UniProt P06729 (P06729 25-351): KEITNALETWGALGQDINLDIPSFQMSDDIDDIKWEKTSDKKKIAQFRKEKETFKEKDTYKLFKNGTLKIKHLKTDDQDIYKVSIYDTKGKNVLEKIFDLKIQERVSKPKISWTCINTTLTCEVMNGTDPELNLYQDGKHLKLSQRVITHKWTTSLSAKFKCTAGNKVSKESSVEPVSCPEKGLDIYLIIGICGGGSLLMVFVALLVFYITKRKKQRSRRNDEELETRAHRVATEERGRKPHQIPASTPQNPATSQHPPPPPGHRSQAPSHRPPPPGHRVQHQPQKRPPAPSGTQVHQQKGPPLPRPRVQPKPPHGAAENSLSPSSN

B1: anti-CD2 scFv displayed on EVs via the PDGFR transmembrane domain, helical (α-helix) linker (scFv)
scFv: DYKDHDGDYKDHDIDYKDDDDKNIMMTQSPSSLAVSAGEKVTMTCKSSQSVLYSSNQKNYLAWYQQKPGQSPKLLIYWASTRESGVPDRFTGSGSGTDFTLTISSVQPEDLAVYYCHQYLSSHTFGGGTKLEIKRGGGGSGGGGSGGGGSQLQQPGAELVRPGSSVKLSCKASGYTFTRYWIHWVKQRPIQGLEWIGNIDPSDSETHYNQKFKDKATLTVDKSSGTAYMQLSSLTSEDSAVYYCATEDLYYAMEYWGQGTSVTVSSDQSNSEEAKKEEAKKEEAKKSNSAVGQDTQEVIVVPHSLPFKVVVISAILALVVLTIISLIILIMLWQKKPR
With B1 the fold increase of EV binding over non-targeted EVs was over 100 fold.
